Data as given in the RNAGym collection of RNA variant scans (doi:10.1073/pnas.2313332121).

B1: TPR t1 (parent)
chain: GACCAAUCUGCCCUCAGAGCUCGAGAACAUCUUCGGAUGCAGAGGAGGCAGGCUUCGGUGGCGCGAUAGCGCCAACGUCCUCAACCUCCAAUGCAUCCCACCACAUGAUGAUGCCUGAAGAGCCUUGGUUUUUUG

Variants of: B1
Experiment: polymerase ribozyme fitness, log enrichment relative to wild type (log ratio); higher = more active; in vitro selection for triplet polymerase activity
Outline: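 Streptavidin-bead capture of gel-excised extended constructs, followed by RT-PCR, closed a single triplicate in vitro selection round. That round began by annealing PCR-built, transcribed mutant libraries of each subunit of a heterodimeric triplet polymerase ribozyme with a biotinylated primer, the partner subunit and triplets, then incubating them frozen at −7 °C. After Illumina sequencing of inputs and outputs, genotypes needed ≥10 input reads and ≥1 read per output. Fitness is the base-2 logarithm of genotype enrichment over wild-type enrichment, using inverse-variance-weighted replicate averages.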

Variant	polymerase ribozyme fitness (log ratio)
G61A C64A	-6.82
G58C U59C A83C U106A	-0.577
C22U C72A A100C	-4.76
C40G U55G U78G	-2.04
A6G C97U U112A	1.48
C72U U116A	-3.04
G58A C85U	-1.88
C56U C94A A105G	-3.08
A100C U106A U132C	-0.19
G61A U78G C85U A90C	-2.22
A41U C80A C104U	-6.34
A2G G63A C99U C101A A121G C124G	-4.81
A27U C76U A95G U130G	-4.08
C11U A50G	-0.405
C79A C82U	-0.745
C53G C72A U112G G113C	-7.66
C11U U38A G120C	0.779
U9C U59C A84U C104A C114U	-4.8
U21C C28U C72U	-1.89
G48A U59A G69C A84U A118C	-3.45
G10A G42U C85G	-1.94

Variant	polymerase ribozyme fitness (log ratio)
U14G G45A A121U	0.629
A6U C56A C94A U106A C124A	0.262
C20A A29G G36U	-6.08
C8U C53U C73U A105C U125G	-1.94
C8A U9G C62A	-0.773
A24G C88U A95C C124A U133A	-0.316
A29G C102A	-4.16
A5U G10A C15A C70U C79A C94U C99U C124U	-7.66
C22U C56G U78A	-3.95
G23U A90U	-6.86
G48A C56G C85G C94A A105G	-6.42
C4U C11G	0.407
G19C G57A G69U C85G	-4.01
C15A C76U C79A C104A C123A	-4.6
A29G G63A	-1.9
C86G A91G	-1.96
C88A C115U	-0.599
G113A A119U U126A	-3.89
C97U G110A	-1.67
A5G A29C	-1.82
C13A C97U	-2.68

Variant	polymerase ribozyme fitness (log ratio)
C12G C56A C70G	-3.89
G47A G52A G61C G120A	-4.97
C3G A95G	-2.02
G52U G117U U133A	-3.76
G36C G113U U129A	-4.27
A16G C49A C88A C99A C102U C114U	-4.49
A6U G113U	-2.09
G39U C70A	-2.96
G35C G120U	-3.99
G42C G71U U96G	-3.01
C12A G51C	-4.5
G42C G110C	-6.03
C53U G61U C114U	-2.37
G60C A121C U130A	0.0713
C49G G77A U112G	-0.318
G19C C70U	-2.55
A27U G60U G61C	-5.43
A26U G117A	-5.38
G69C U92G G120C	-3.22
C15U G44U C85A C94U G117C A118U	-4.78
C8G G45A G52U C53A C98U G110A G120C U129A	-6.11

Variant	polymerase ribozyme fitness (log ratio)
G69U U78A A83C C102G	-3.71
C94G	-0.92
A46G A95G	-0.108
C89G C124A	0.877
G42C G48U C70A G120U	-5.45
U14G C101G	-3.2
C11G U21G G93A	-2.28
G10C A26G G71A	-2.61
A2G C13G C86U C123A U133C	0.0468
C49U C53U C97U	-1.14
C22G G45A	-3.31
G35A C98G	-6.5
G51C C56A G77U U78A	-3.51
C12A C28U G44A C49G C72U C86A	-4.58
A18U G36U U59C C97G	-4.79
C15U C34A G69C	-5.57
C64U C82U C89A	-1.79
A26U A41C	-4.03
G51U C72A U106A	-3.24
C28A G135U	-4.58
G10A A41U C53U U78G C89A A105U G120U	-5.97
